From patent US20150232562A1 (Ablynx, published 2015) come the findings set out here.

B1: 47G11 (VHH)
VHH: EVQLVESGGGLVQPGGSLRLSCAASGRIFYPMGWFRQAPGKEREFVAAIGSGDIITYYADSVKGRFTISRDNAKNTVYLQMNSLKPEDTAVYYCASSRDYSRSRDPTSYDRWGQGTQVTVSS
notes: C-term myc-His6 tag
B2: 13G71/1-124 (VHH)
VHH: EVQLVESGGGLVQAGGSLRLSCAASGRAFSSYAMGWFRQAPGKERDFVAAITSSGSTNYADSVKGRFTISRDNAKNTVYLQMNSLKPEDTAVYYCGARVNYAAYSRLEHDYHYWGQGTQVTVSS
notes: C-term myc-His6 tag
B3: 13F71/1-123 (VHH)
VHH: EVQLVESGGGLVQAGGSLRLSCVASGRTFSNYALAWFRQAPGKEREFVAAINWRSGGSTYYADSVKGRFTISRDNAKNTVYLQMNSLKPEDTAVYYCAADLIVATLPGEYDYWGQGTQVTVSS
notes: C-term myc-His6 tag
B4: 13G111/1-123 (VHH)
VHH: EVQLVESGGGLVQAGGSLRLSCAASGRTFSSYAMGWFRQAPGKERAFVAAIRWSGGNTYYADSVKGRFTISRDNAKNTVYLQMNSLKPEDTAVYYCAADTFTLSTLSHEYDYWGQGTQVTVSS
notes: C-term myc-His6 tag
B5: 11A101/1-120 (VHH)
VHH: EVQLVESGGGLVQAGGSLRLSCAASGRTFNAMGWFRQAPGKEREFVAAISRSPGVTYYADSVKGRFTTSRDNAKNTVYLQMNDLKPEDTAVYYCAADFYLATLAHEYDYWGQGTQVTVSS
notes: C-term myc-His6 tag
B6: 22B12/1-124 (VHH)
VHH: EVQLVESGGGLVQAGGSLRLSCAASGRTFSSYAMAWFRQAPGKEREFVAGINKSGGITHSADSVKGRFTISRDNAKNTVYLQMNSLKPEDTAVYYCAADAYTVIATLPHEYDYWGQGTQVTVSS
notes: C-term myc-His6 tag
B7: 11A22/1-122 (VHH)
VHH: EVQLVESGGGLVQAGGSLRLSCAASGRTFSSYAMAWFRQAPGTEREFIAGIRWSDGSTYYADSVKGRFTISRDNAKNTVYLQMNSLKPEDTAVYYCAADFYVSTLAHEYDYWGQGTQVTVSS
notes: C-term myc-His6 tag
B8: 12E11/1-122 (VHH)
VHH: B7 VHH with T43K, I48V, A49G, N77I
notes: C-term myc-His6 tag
B9: 12D44/1-122 (VHH)
VHH: B7 VHH with E1K, D73A, S85G
notes: C-term myc-His6 tag
B10: 11A111/1-126 (VHH)
VHH: EVQLVESGGGLVQAGGSLGLSCAAAGRTFSSSLMGWFRQAPGKEREFVAAITDNGGSTYYADSVKGRFTISRDNAKNSVYLQMNSLKPEDTAIYYCAARRSGYYSLSTSPHQYAYWGQGTQVTVSS
notes: C-term myc-His6 tag
B11: 12D51/1-120 (VHH)
VHH: EVQLVESGGGLVQPGGSLRLSCAASGSAFSIKSMGWYRQAPGKQRELAAVIISSGTTTYADSVKGRFTISRDSAKNTVYLQMDSLKPEDTAVYVCNAVYVSTWGNGYDYWGQGTQVTVSS
notes: C-term myc-His6 tag
B12: 13G74/1-125 (VHH)
VHH: EVQLVESGGGLVQAGGSLRLSCATSGRTFSTYASMGWFRQTPGKEREFVAAITSSGSTNYADSVKGRFTISRDNAKNTVYLQMNSLKPEDTAVYYCGARVNYAAYSRLEHDYHYWGQGTQVTVSS
notes: C-term myc-His6 tag
B13: 14H61/1-122 (VHH)
VHH: EVQLVESGGGLVQAGGSLRLSCAASGRTFSRFAMGWFRQAPGKEREFVAAVRWSDDYTYYADSVKGRFTISRDNAKNTVYLQMNSLSPEDTAVYYCAADEILATLPHEYDYWGQGTQVTVSS
notes: C-term myc-His6 tag

Changes are numbered by the printed parent chain.

In the assay the target is T1, recombinant human ErbB2/Fc chimera (human, UniProt P04626 23-652).
T1 construct: bought from R&D Systems; also called rhErbB2-Fc; rhErb2-Fc; Fc part of the bought chimera not given; not described
Put plainly: ELISA, coated ErbB2/Fc. For orientation: An ELISA detects its analyte on a solid surface through an enzyme-linked reagent.
In the case of B1, the binding result is reported as “binds”. B2: the binding result was “binds”. The entry for B3 is “binds”. In the case of B4, the binding result is reported as “binds”. The entry for B5 is “binds”; for B6 it is “binds”; for B7 it is “binds”. As for B8, the binding result was “binds”.

In the case of B9, the binding result is recorded as “binds”.

Consider B10, for which the binding result is reported as “binds”.

For B11, the binding result is on record as “binds”. In the case of B12, the binding result was “binds”. As to B13, the binding result is reported as “binds”.
